The values that follow are results of earlier work, collected in publication PMC3012698, “Characterization of a Novel Interaction between Bcl-2 Members Diva and Harakiri” (PLoS ONE, 2010).

The target in data set [1] is Mcl-1 (UniProt Q07820).
Data set [2] addresses BFL-1 (Homo sapiens) (UniProt Q16548).
Data set [3] shares this target. This is another data set of the same source.
In data set [4] the target is Bcl-w (Homo sapiens) (UniProt Q92843).
For data set [5], the target named is Bcl-2 (Homo sapiens) (UniProt P10415).
Sequence of Bcl-2 (Homo sapiens) (P10415 whole entry): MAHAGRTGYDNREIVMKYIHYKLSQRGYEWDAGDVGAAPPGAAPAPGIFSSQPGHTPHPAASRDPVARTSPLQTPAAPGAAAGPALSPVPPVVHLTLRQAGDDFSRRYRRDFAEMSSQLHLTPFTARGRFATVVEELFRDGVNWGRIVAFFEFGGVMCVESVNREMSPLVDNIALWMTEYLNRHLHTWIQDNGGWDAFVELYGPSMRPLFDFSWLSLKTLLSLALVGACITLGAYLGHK
For data set [6] the target is unchanged. This is another data set of the same source.
Data set [7] has as its target Mcl-1 (UniProt Q07820). The source holds these as a separate data set.

Read-outs that look alike come from different tables or passages of the source.

Sequence of Noxa BH3 (Q13794 19-43): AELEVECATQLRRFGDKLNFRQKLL
Sequence of Bik BH3 (Q13323 51-75): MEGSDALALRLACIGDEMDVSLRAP
Sequence of BFL-1 (Homo sapiens) (Q16548 whole entry): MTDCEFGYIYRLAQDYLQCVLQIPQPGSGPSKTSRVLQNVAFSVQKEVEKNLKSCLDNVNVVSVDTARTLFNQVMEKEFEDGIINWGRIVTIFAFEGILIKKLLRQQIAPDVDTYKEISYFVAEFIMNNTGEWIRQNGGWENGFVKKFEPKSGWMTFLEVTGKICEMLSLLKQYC
Sequence of Mcl-1 (Q07820 whole entry): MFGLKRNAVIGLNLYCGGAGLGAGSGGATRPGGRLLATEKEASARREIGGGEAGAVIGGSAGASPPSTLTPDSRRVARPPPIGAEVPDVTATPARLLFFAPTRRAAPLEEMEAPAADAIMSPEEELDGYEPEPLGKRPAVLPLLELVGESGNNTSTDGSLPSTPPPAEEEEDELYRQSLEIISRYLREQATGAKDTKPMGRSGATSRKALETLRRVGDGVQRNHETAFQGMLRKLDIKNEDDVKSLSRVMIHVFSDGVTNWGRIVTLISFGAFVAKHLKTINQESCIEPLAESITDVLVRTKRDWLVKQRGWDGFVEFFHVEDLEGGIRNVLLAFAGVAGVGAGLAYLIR
Sequence of Bcl-w (Homo sapiens) (Q92843 2-193): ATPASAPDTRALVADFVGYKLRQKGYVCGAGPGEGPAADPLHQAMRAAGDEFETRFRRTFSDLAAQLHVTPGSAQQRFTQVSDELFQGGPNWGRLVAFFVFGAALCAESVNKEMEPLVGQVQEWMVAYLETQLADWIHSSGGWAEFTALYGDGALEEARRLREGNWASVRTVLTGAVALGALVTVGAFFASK

Broadly, the Kd is a measure of binding affinity in units of concentration. With Bik BH3 (from UniProt Q13323), the dissociation constant Kd is 0.109 µM in data set [1] and more than 2.5 µM in data set [2].

Regarding Harakiri BH3 (from UniProt O00198), the Kd in data set [3], in data set [4] and in data set [5] was more than 2.5 µM each time.

Take Noxa BH3 (from UniProt Q13794): the results for the Kd in data set [6] and in data set [7] were more than 2.5 µM and 0.025 µM, respectively.
